Assay results as given in patent publication US20260209318A1 (NATIONAL UNIVERSITY OF SINGAPORE, published 2026).

Biological target: SARS-CoV-2 spike protein RBD (SARS-CoV-2, UniProt P0DTC2 319-541)
Assay: multiplex sVNT, RBD-coated beads, PE-hACE2 as competitor

B1: SS6V11-E7 (antibody, V domains shown)
VH: QVQLQESGPGLVKPSETLSLTCTVSGGFIGPHYWSWVRQPPGKGLEWIGYIYISGSTNYNPSLKSRLTISVDMSKSQFSLTLSSATAADTAVYYCARGGGYLETGPFEYWGQGTLVTVSS
VL: DIVMTQSPLSLPVTPGEPASISCRSSQSLLQNNGYNYLAWYLQKPGQSPQLLIYLSSTRASGVPDRFSGSGSGTDFTLKISRVEAEDVGVYYCMQSLQIPGTFGQGTRLEIK
B1: binds.
